From PMC5587394 (Structure (London, England : 1993), 2017)

Biological target: FGF9^WT (human FGF9, residues 35-208) (human, UniProt P31371 35-208)
Experiment: SPR

binding result: binds
B1: FGFR1c^ecto/WT (human FGFR1c ectodomain, residues 141-365) (domain or fragment)
chain: TDNTKPNRMPVAPYWTSPEKMEKKLHAVPAAKTVKFKCPSSGTPNPTLRWLKNGKEFKPDHRIGGYKVRYATWSIIMDSVVPSDKGNYTCIVENEYGSINHTYQLDVVERSPHRPILQAGLPANKTVALGSNVEFMCKVYSDPQPHIQWLKHIEVNGSKIGPDNLPYVQILKTAGVNTTDKEMEVLHLRNVSFEDAGEYTCLAGNSIGLSHHSAWLTVLEALEER
